Tested on: SU-pcGBM2 cells
Test: EdU incorporation assay, proliferation index of pHGG cells (SU-pcGBM2)
Type: cell-based, human

Molecule | effect on proliferation index relative to aCSF control (recombinant candidate proteins at 100 nM for 24 hours) | effect on pHGG cell proliferation (recombinant NLGN2 at 1, 10 or 100 nM for 24 hours)
brevican: Recombinant candidate protein from proteomic analyses of cortical slice conditioned media (protein, UniProt Q96GW7 23-911, looked up) Brevican core protein: DVLEGDSSEDRAFRVRIAGDAPLQGVLGGALTIPCHVHYLRPPPSRRAVLGSPRVKWTFLSRGREAEVLVARGVRVKVNEAYRFRVALPAYPASLTDVSLALSELRPNDSGIYRCEVQHGIDDSSDAVEVKVKGVVFLYREGSARYAFSFSGAQEACARIGAHIATPEQLYAAYLGGYEQCDAGWLSDQTVRYPIQTPREACYGDMDGFPGVRNYGVVDPDDLYDVYCYAEDLNGELFLGDPPEKLTLEEARAYCQERGAEIATTGQLYAAWDGGLDHCSPGWLADGSVRYPIVTPSQRCGGGLPGVKTLFLFPNQTGFPNKHSRFNVYCFRDSAQPSAIPEASNPASNPASDGLEAIVTVTETLEELQLPQEATESESRGAIYSIPIMEDGGGGSSTPEDPAEAPRTLLEFETQSMVPPTGFSEEEGKALEEEEKYEDEEEKEEEEEEEEVEDEALWAWPSELSSPGPEASLPTEPAAQEESLSQAPARAVLQPGASPLPDGESEASRPPRVHGPPTETLPTPRERNLASPSPSTLVEAREVGEATGGPELSGVPRGESEETGSSEGAPSLLPATRAPEGTRELEAPSEDNSGRTAPAGTSVQAQPVLPTDSASRGGVAVVPASGDCVPSPCHNGGTCLEEEEGVRCLCLPGYGGDLCDVGLRFCNPGWDAFQGACYKHFSTRRSWEEAETQCRMYGAHLASISTPEEQDFINNRYREYQWIGLNDRTIEGDFLWSDGVPLLYENWNPGQPDSYFLSGENCVVMVWHDQGQWSDVPCNYHLSYTCKMGLVSCGPPPELPLAQVFGRPRLRYEVDTVLRYRCREGLAQRNLPLIRCQENGRWEAPQISCVPRRPARALHPEEDPEGRQGRLLGRWKALLIPPSSPMPGP | did not differ | 
NLGN2: Recombinant soluble neuroligin-2 (protein, UniProt Q8NFZ4 15-677, looked up, extracellular domain) extracellular domain: QRGGGGPGGGAPGGPGLGLGSLGEERFPVVNTAYGRVRGVRRELNNEILGPVVQFLGVPYATPPLGARRFQPPEAPASWPGVRNATTLPPACPQNLHGALPAIMLPVWFTDNLEAAATYVQNQSEDCLYLNLYVPTEDGPLTKKRDEATLNPPDTDIRDPGKKPVMLFLHGGSYMEGTGNMFDGSVLAAYGNVIVATLNYRLGVLGFLSTGDQAAKGNYGLLDQIQALRWLSENIAHFGGDPERITIFGSGAGASCVNLLILSHHSEGLFQKAIAQSGTAISSWSVNYQPLKYTRLLAAKVGCDREDSAEAVECLRRKPSRELVDQDVQPARYHIAFGPVVDGDVVPDDPEILMQQGEFLNYDMLIGVNQGEGLKFVEDSAESEDGVSASAFDFTVSNFVDNLYGYPEGKDVLRETIKFMYTDWADRDNGEMRRKTLLALFTDHQWVAPAVATAKLHADYQSPVYFYTFYHHCQAEGRPEWADAAHGDELPYVFGVPMVGATDLFPCNFSKNDVMLSAVVMTYWTNFAKTGDPNQPVPQDTKFIHTKPNRFEEVVWSKFNSKEKQYLHIGLKPRVRDNYRANKVAFWLELVPHLHNLHTELFTTTTRLPPYATRWPPRPPAGAPGTRRPPPPATLPPEPEPEPGPRAYDRFPGDSRDYSTELS |  | No effect of NLGN2 on pHGG cell proliferation was observed

— patent US10377818B2, “Method of treating glioma” (The Board of Trustees of the Leland Stanford Junior …, priority 2015, dated 2019)
